“Also recorded” adds a separate entry of the source. Where two headings read alike, the source gives them in different places. No end group written: not given here.
Tests used:
top1 [1] = biological target: T1, top1 (Homo sapiens, UniProt P11387); assay: Biosensor binding specificity, top1 versus topoisomerase II and tubulin over T1BP2 surface; parameters: made in house; host or cells: Sf9 insect cells (baculovirus) or human placenta; details: 8.0 nM of each protein injected over T1BP2 channel
T1 sequence (P11387 1-765): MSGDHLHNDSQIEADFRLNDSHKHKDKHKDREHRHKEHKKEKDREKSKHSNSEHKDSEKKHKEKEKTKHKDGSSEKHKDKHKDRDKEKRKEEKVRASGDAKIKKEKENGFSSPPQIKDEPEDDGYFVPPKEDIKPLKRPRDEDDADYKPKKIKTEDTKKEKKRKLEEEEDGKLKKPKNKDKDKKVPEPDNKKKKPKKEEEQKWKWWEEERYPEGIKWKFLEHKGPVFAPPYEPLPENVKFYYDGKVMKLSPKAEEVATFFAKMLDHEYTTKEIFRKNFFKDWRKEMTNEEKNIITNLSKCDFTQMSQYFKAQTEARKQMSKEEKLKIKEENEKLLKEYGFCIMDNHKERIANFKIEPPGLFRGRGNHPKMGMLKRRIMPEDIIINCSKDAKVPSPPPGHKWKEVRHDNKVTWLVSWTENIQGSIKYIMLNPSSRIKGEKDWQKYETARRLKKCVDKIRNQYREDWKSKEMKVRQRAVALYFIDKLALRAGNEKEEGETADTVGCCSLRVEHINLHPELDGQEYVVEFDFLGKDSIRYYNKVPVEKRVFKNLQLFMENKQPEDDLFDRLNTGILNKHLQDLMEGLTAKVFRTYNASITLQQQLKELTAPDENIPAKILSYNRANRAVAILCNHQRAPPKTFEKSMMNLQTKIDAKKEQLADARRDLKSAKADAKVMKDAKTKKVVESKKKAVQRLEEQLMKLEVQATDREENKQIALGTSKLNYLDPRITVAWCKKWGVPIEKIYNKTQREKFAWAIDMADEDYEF
Experimental: (§1) These top1 experiments were evaluated with BIAevaluation Software 3.1 using Langmuir Kinetics to model the interaction. The accuracy of the fit to the model is illustrated by dashed lines representing actual data and narrow lines representing the fitted curves.

top1 [2] = biological target: T1, top1; details: surface plasmon resonance
100 kDa top1 = biological target: T2, 100 kDa top1 (Homo sapiens, UniProt P11387); assay: top1-mediated DNA relaxation assay (supercoiled pBR322); format: biochemical; details: 1 μM peptide
T2 construct: made in house; host or cells: Sf9 insect cells (baculovirus) or human placenta
T2 sequence (P11387 1-765): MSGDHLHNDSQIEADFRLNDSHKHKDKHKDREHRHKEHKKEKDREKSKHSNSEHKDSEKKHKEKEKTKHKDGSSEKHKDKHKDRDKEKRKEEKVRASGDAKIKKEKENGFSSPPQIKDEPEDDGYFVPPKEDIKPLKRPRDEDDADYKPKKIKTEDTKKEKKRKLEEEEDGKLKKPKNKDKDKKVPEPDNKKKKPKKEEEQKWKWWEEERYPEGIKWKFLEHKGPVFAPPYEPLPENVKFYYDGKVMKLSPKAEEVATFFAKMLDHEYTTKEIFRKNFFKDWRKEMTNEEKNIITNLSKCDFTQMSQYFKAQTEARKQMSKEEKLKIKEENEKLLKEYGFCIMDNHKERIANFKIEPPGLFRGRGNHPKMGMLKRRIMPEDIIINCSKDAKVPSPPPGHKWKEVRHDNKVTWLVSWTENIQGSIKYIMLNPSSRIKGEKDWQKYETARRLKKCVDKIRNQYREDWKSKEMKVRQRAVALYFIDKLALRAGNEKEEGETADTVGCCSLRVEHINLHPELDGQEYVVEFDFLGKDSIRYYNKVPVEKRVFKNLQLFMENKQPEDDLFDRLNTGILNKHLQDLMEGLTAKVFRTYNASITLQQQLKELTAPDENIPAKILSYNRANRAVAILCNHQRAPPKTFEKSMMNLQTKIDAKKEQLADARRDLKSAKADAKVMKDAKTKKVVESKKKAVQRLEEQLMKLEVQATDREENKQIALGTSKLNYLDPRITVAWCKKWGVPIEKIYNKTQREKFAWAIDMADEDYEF
Experimental: Top1 relaxation/cleavage activity assays: Peptides were assayed for their ability to interfere with or enhance relaxation of supercoiled DNA mediated by 100 kDa top1. The top1 and pBR322 were combined in a top1-reaction buffer (150 mM KCl, 12 mM MgCl2, 2 mM EDTA, 50 mM Tris HCl pH 7.5) at 37° C. for 30 minutes with 1 μM peptide. The 20 μl reactions were stopped with 1.0 μl of 1% SDS. Digestion of protein was performed by addition of 1.0 μg proteinase K for 30 minutes at 37° C., loaded with 5 μl of a standard 5×bromphenol blue/glycerol loading buffer and run in an 0.8% agarose gel in TAE (0.04 M Tris-acetate and 1.0 mM EDTA). DNA cleavage assays were performed in 20 μl volumes of reaction buffer (50 mM Tris-HCl (pH 7.5), 100 mM KCl, 10 mM MgCl2 0.5 mM EDTA, 0.2 mg/ml BSA), 500 ng of radiaolabeled (^3H thymidine) supercoiled rf (replicative form) M13 mp 19 DNA and 112 ng of top1. The reactions were incubated for 30 minutes at 30° C. and then treated with 1 μl of 1 mg/ml proteinase K in 0.05% SDS for an additional 30 minutes at 37° C. to transform the 9AC-top1-DNA complexes into nicked DNA. This was followed by electrophoresis in an 0.8% agarose-TAE gel containing ethidium bromide. […] Percent cleavage was determined by liquid scintillation counting of excised bands using the method described by Marshall et al. (Marshall 2003).

top1 [3] = biological target: T1, top1; assay: DNA cleavage complex assay with 9AC; format: biochemical; parameters: made in house; host or cells: Sf9 insect cells (baculovirus) or human placenta
Experimental: Top1 relaxation/cleavage activity assays: Peptides were assayed for their ability to interfere with or enhance relaxation of supercoiled DNA mediated by 100 kDa top1. The top1 and pBR322 were combined in a top1-reaction buffer (150 mM KCl, 12 mM MgCl2, 2 mM EDTA, 50 mM Tris HCl pH 7.5) at 37° C. for 30 minutes with 1 μM peptide. The 20 μl reactions were stopped with 1.0 μl of 1% SDS. Digestion of protein was performed by addition of 1.0 μg proteinase K for 30 minutes at 37° C., loaded with 5 μl of a standard 5×bromphenol blue/glycerol loading buffer and run in an 0.8% agarose gel in TAE (0.04 M Tris-acetate and 1.0 mM EDTA). […] The reactions were incubated for 30 minutes at 30° C. and then treated with 1 μl of 1 mg/ml proteinase K in 0.05% SDS for an additional 30 minutes at 37° C. to transform the 9AC-top1-DNA complexes into nicked DNA. This was followed by electrophoresis in an 0.8% agarose-TAE gel containing ethidium bromide. A control set of experiments and log serial dilutions of peptide were examined for each peptide. Percent cleavage was determined by liquid scintillation counting of excised bands using the method described by Marshall et al. (Marshall 2003).

human topoisomerase I [4] = biological target: T3, human topoisomerase I (human, UniProt P11387 1-765, limits assumed); assay: phage display biopanning against top1-DNA-9AC, analytical titering against top1
T3 construct: also called top1; top 1
T3 sequence (looked up): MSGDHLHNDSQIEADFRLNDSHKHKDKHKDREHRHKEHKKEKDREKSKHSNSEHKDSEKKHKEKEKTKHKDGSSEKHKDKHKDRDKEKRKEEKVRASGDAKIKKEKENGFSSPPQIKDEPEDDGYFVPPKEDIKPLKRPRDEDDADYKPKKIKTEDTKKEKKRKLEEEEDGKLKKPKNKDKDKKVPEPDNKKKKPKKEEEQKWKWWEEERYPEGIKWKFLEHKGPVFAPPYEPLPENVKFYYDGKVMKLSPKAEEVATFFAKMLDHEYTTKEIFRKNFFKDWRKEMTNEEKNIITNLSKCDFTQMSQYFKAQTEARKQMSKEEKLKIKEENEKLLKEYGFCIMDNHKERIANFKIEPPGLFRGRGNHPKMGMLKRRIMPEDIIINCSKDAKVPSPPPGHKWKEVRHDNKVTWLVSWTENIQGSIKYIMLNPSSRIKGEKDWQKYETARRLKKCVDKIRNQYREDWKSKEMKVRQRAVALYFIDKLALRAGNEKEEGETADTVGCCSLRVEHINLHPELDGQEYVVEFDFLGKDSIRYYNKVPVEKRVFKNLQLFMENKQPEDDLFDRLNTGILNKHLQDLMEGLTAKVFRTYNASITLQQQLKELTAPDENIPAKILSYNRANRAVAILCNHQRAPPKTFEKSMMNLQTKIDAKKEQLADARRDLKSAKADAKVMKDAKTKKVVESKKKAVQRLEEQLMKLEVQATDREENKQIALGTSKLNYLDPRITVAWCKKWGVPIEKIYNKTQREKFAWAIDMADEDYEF
Experimental: Phage display: Phage display was performed as described by Smith (Parmley 1989). Briefly, top1 was first biotinylated with a biotin derivative containing a spacer engineered to reduced steric interference (Pierce EZ-Link Biotin-PEO-Amine). The reaction was performed at a 5:1 molar ratio of biotin:top1 in 10 mM HEPES (pH 8.2) buffered 500 mM NaCl. The unreacted biotin was removed by gel filtration in a Biospin 30 column (BioRad) and biotinylated top1 was assayed for activity using a pull down method with streptavidin coated beads. The biotinylated top1 maintained catalytic activity. For phage display, 20 μg biotinylated top1 was reacted with a mixture of pBR322 and 9AC and 20 μg was applied to a 30 mm plastic petri dish coated with 10 μg of neutravidin (Pierce). The dish was then blocked with 3.0% bovine serum albumin, and 10 μl of a 10⁹/μl titer phage library in 100 μl TBS-0.05% Tween was added. Phage were allowed to associate with gentle rocking for 2 hours at 4° C., and then washed repeatedly over 2 hours at 4° C. with buffered saline containing 0.1% Tween. […]
Analytical titering: Ten μl of amplified phage clones (approximately 10¹² cfu) were incubated in 50 nM top1 for one hour at 4° C. on a rocker. […] Competent E. coli were added directly to the washed plates and the output assessed by counting a 10⁻⁶ dilution of the culture on tetracycline plates (FIG. 1). […]

T1BP2 = biological target: T4, T1BP2
T4 chain: SAYAATVRGPLSSAS

human topoisomerase I [5] = biological target: T3, human topoisomerase I; assay: SPR (BIAcore), T1BP2 on the chip, top1 as analyte, Langmuir model [cont'd) B]
Experimental: as §1
(§2) Binding analysis: The binding analysis of the peptides was performed on a BIAcore 2000 instrument. A four channel CM5 sensor chip was derivatized with three top1 binding peptides (T1BPs 1, 2 and 4) and a control surface left blank. Catalytically active top1 was used as the mobile or analyte phase and diluted in 150 mM NaCl, 30 mM HEPES, 0.05% P20 and injected at various concentrations (8.0, 4.0, 2.0, 1.0 and 0.4 nM) through the instrument's microfluidics sample handling system at a flow rate of 30 μl/minute. With each injection of a particular concentration of top1, association and dissociation data for three peptides were generated. Binding constants were determined using the BIAevaluation 2.1 software.

human topoisomerase I [6] = biological target: T3, human topoisomerase I; assay: SPR (BIAcore 2000), T1BP2 on CM5 chip, top1 as analyte, Langmuir model
Experimental: as §2
T1BP2 affinity for top1: T1BP2 had remarkable affinity for top1 when assayed by surface plasmon resonance (FIG. 2a).

Molecule: SAYAATVRGPLSSAS [T1BP2, SAYAATVRGPLSSAS]
- binding specificity for top1 verses topoisomerase II and tubulin (top1 [1]): specificity for top1
- affinity for top1 (in words) (top1 [2]): high nanomolar affinity
- affinity for top1 (in words) (top1 [2]; listed as T1PB2): mid-nanomolar affinity
- effect on top1-mediated DNA relaxation (100 kDa top1): slight ability to inhibit top1-mediated relaxation; also recorded: Inhibition of top1 relaxation (slight increase in supercoiled DNA remaining)
- effect on cleavage (in words) (top1 [3]; 0.45 μM 9AC, 20 ng top1): increase in cleavage at all but one concentration
- increase in cleavage complex formation (top1 [3]; 0.45 μM and 0.9 μM 9AC, through the range of peptide concentrations tested): approximately 50%

Molecule: RNQGPVKMVFPIAPS (also called CPP5) [T1BP4]
- binding result (human topoisomerase I [4]): binds

B1: human topoisomerase I (protein)
chain: MSGDHLHNDSQIEADFRLNDSHKHKDKHKDREHRHKEHKKEKDREKSKHSNSEHKDSEKKHKEKEKTKHKDGSSEKHKDKHKDRDKEKRKEEKVRASGDAKIKKEKENGFSSPPQIKDEPEDDGYFVPPKEDIKPLKRPRDEDDADYKPKKIKTEDTKKEKKRKLEEEEDGKLKKPKNKDKDKKVPEPDNKKKKPKKEEEQKWKWWEEERYPEGIKWKFLEHKGPVFAPPYEPLPENVKFYYDGKVMKLSPKAEEVATFFAKMLDHEYTTKEIFRKNFFKDWRKEMTNEEKNIITNLSKCDFTQMSQYFKAQTEARKQMSKEEKLKIKEENEKLLKEYGFCIMDNHKERIANFKIEPPGLFRGRGNHPKMGMLKRRIMPEDIIINCSKDAKVPSPPPGHKWKEVRHDNKVTWLVSWTENIQGSIKYIMLNPSSRIKGEKDWQKYETARRLKKCVDKIRNQYREDWKSKEMKVRQRAVALYFIDKLALRAGNEKEEGETADTVGCCSLRVEHINLHPELDGQEYVVEFDFLGKDSIRYYNKVPVEKRVFKNLQLFMENKQPEDDLFDRLNTGILNKHLQDLMEGLTAKVFRTYNASITLQQQLKELTAPDENIPAKILSYNRANRAVAILCNHQRAPPKTFEKSMMNLQTKIDAKKEQLADARRDLKSAKADAKVMKDAKTKKVVESKKKAVQRLEEQLMKLEVQATDREENKQIALGTSKLNYLDPRITVAWCKKWGVPIEKIYNKTQREKFAWAIDMADEDYEF
- cleavage complex formation (top1-DNA-9AC cleavage assay) (T1BP2): T1BP2 increased cleavage complex formation approximately 50%

B2: T1BP2 (peptide)
peptide: SAYAATVRGPLSSAS
notes: Coupled to a CM5 chip for SPR; also called T1PB2; CPP3
- Ka (human topoisomerase I [5]): 1.5e+06 M⁻¹
- kd (s-1) (observed) at [Top1] 0.4 nM (human topoisomerase I [5]): 0.0028 s⁻¹
- kd (s-1) (observed) at [Top1] 1.0 nM (human topoisomerase I [5]): 0.0028 s⁻¹
- kd (s-1) (observed) at [Top1] 2.0 nM (human topoisomerase I [5]): 0.00281 s⁻¹
- kd (s-1) (observed) at [Top1] 4.0 nM (human topoisomerase I [5]): 0.00282 s⁻¹
- kd (s-1) (observed) at [Top1] 8.0 nM (human topoisomerase I [5]): 0.00283 s⁻¹
- koff (human topoisomerase I [5]): 0.0028 s⁻¹
- kon (human topoisomerase I [5]): 4210 M⁻¹ s⁻¹
- Kd (human topoisomerase I [6]): 665 nM
